Laboratory results reported in the Human Domainome abundance scans (Beltran et al. 2025).
± gives the uncertainty stated by the source.

B1: Serine/threonine-protein kinase A-Raf, residues 21 to 89; numbered along this chain, P10398 (parent)
chain: VKVYLPNKQRTVVTVRDGMSVYDSLDKALKVRGLNQDCCVVYRLIKGRKTVTAWDTAIAPLDGEELIVE

Variants of: B1
Assay: abundance fitness (aPCA) (normalised: wild type 0, dead -1); higher = more abundant; growth selection in yeast, the domain comes from the species named
Conditions: Homo sapiens

Variant	abundance fitness
VKVYLPNKQRTVVTVRDGMSVYDSLDKALKVRGLNQDCCVVYRLEKGRKTVTAWDTAIAPLDGEELIVE [I45E]	-0.224 ± 0.079
VKVYLPNKQRTVVTVRDGMSVYDSLDKALKVRGLNQDCCVVYRLQKGRKTVTAWDTAIAPLDGEELIVE [I45Q]	-0.078 ± 0.087
VKVYLPNKQRTVVTVRDGMSVYDSLDKALKVRGLNQDCCVVYRLWKGRKTVTAWDTAIAPLDGEELIVE [I45W]	-0.1 ± 0.073
VKVYLPNKQRTVVTVRDGMSVYDSLDKALKVRGLNQDCCVVYRLDKGRKTVTAWDTAIAPLDGEELIVE [I45D]	-0.1 ± 0.13
VKVYLPNKQRTVVTVRDGMSVYDSLDKALKVRGLNQDCCVVYRLIKGRKTVTAWDTAIAPLDGAELIVE [E64A]	-0.206 ± 0.16
VKVYLPNKQRTVVTVRDGMSVYDSLDKALKVRGLNQDCCVVYRLIKGRKTVTAWDTAIAPLDGSELIVE [E64S]	-0.112 ± 0.08
VKVYQPNKQRTVVTVRDGMSVYDSLDKALKVRGLNQDCCVVYRLIKGRKTVTAWDTAIAPLDGEELIVE [L5Q]	-0.87 ± 0.21
VKVYLPNKQRTVVTVRDGMSVYDSLDKALKVRGLNQDCCVVYRLIKGRKTVTAWKTAIAPLDGEELIVE [D55K]	-0.347 ± 0.051
VKVYLPNKQRTVVTVRDGMSVYDSLDKALKVRGLNQDCCVVYRLIKGRKTVTAWGTAIAPLDGEELIVE [D55G]	-0.204 ± 0.029
VKVYLPNKQRTVVTVRDGMSVYDSLDKALKVRGLPQDCCVVYRLIKGRKTVTAWDTAIAPLDGEELIVE [N35P]	-0.754 ± 0.15
VKVYLPNKQRTVVTVRDGMSVYDSLDKALKVRGLYQDCCVVYRLIKGRKTVTAWDTAIAPLDGEELIVE [N35Y]	-0.019 ± 0.21
VKVYLPNKQRTVVTVRWGMSVYDSLDKALKVRGLNQDCCVVYRLIKGRKTVTAWDTAIAPLDGEELIVE [D17W]	-0.304 ± 0.052
VKVYLPNKQRTVVTVRYGMSVYDSLDKALKVRGLNQDCCVVYRLIKGRKTVTAWDTAIAPLDGEELIVE [D17Y]	-0.319 ± 0.075
VKVYLPNKQRTVVTVRHGMSVYDSLDKALKVRGLNQDCCVVYRLIKGRKTVTAWDTAIAPLDGEELIVE [D17H]	-0.279 ± 0.15
VKVYLPNKQRTVVTVRDGMSVYHSLDKALKVRGLNQDCCVVYRLIKGRKTVTAWDTAIAPLDGEELIVE [D23H]	-0.345 ± 0.26
VKVYLPNKQRTVVTVRDGMSVYLSLDKALKVRGLNQDCCVVYRLIKGRKTVTAWDTAIAPLDGEELIVE [D23L]	-0.493 ± 0.059
VKVYLWNKQRTVVTVRDGMSVYDSLDKALKVRGLNQDCCVVYRLIKGRKTVTAWDTAIAPLDGEELIVE [P6W]	-1.01 ± 0.37
VKVYLPNKQRTVVTVRDGMSVYDSLQKALKVRGLNQDCCVVYRLIKGRKTVTAWDTAIAPLDGEELIVE [D26Q]	0.179 ± 0.098
VKVYLPNKQRTVVTVRDGMSVYDSLDKALCVRGLNQDCCVVYRLIKGRKTVTAWDTAIAPLDGEELIVE [K30C]	-0.583 ± 0.13
VKTYLPNKQRTVVTVRDGMSVYDSLDKALKVRGLNQDCCVVYRLIKGRKTVTAWDTAIAPLDGEELIVE [V3T]	-0.985 ± 0.15

Variant	abundance fitness
VKPYLPNKQRTVVTVRDGMSVYDSLDKALKVRGLNQDCCVVYRLIKGRKTVTAWDTAIAPLDGEELIVE [V3P]	-1.01 ± 0.13
VKEYLPNKQRTVVTVRDGMSVYDSLDKALKVRGLNQDCCVVYRLIKGRKTVTAWDTAIAPLDGEELIVE [V3E]	-0.745 ± 0.12
VKRYLPNKQRTVVTVRDGMSVYDSLDKALKVRGLNQDCCVVYRLIKGRKTVTAWDTAIAPLDGEELIVE [V3R]	-0.808 ± 0.089
VKVYLPNKQRTVVTVRDGMSVYDSLDKALKVRGLNQHCCVVYRLIKGRKTVTAWDTAIAPLDGEELIVE [D37H]	-0.097 ± 0.1
VKVYLPNKQRTVVTVRDGMSVYDSLDKALKVRGLNQYCCVVYRLIKGRKTVTAWDTAIAPLDGEELIVE [D37Y]	-0.408 ± 0.15
VKVYLPNKQRTVKTVRDGMSVYDSLDKALKVRGLNQDCCVVYRLIKGRKTVTAWDTAIAPLDGEELIVE [V13K]	-0.955 ± 0.37
VKVYLPNKQRTVVTVRDTMSVYDSLDKALKVRGLNQDCCVVYRLIKGRKTVTAWDTAIAPLDGEELIVE [G18T]	-0.405 ± 0.064
VKVYLPNKQRTVVTVRDRMSVYDSLDKALKVRGLNQDCCVVYRLIKGRKTVTAWDTAIAPLDGEELIVE [G18R]	-0.373 ± 0.035
VKVYLPNKQRTVVTVRDGMSVYDSLDKALKVRDLNQDCCVVYRLIKGRKTVTAWDTAIAPLDGEELIVE [G33D]	-0.416 ± 0.2
VKVYLPNKQRTVVTVRDGMSVYDSLDKALKVRQLNQDCCVVYRLIKGRKTVTAWDTAIAPLDGEELIVE [G33Q]	-0.576 ± 0.12
VKVYLPNKQRTVVTVRDGMSVGDSLDKALKVRGLNQDCCVVYRLIKGRKTVTAWDTAIAPLDGEELIVE [Y22G]	0.105 ± 0.058
VFVYLPNKQRTVVTVRDGMSVYDSLDKALKVRGLNQDCCVVYRLIKGRKTVTAWDTAIAPLDGEELIVE [K2F]	-0.466 ± 0.33
VKVYLPNKQRTVVTVRDGMSVYDSLDKALKVRGLNQDCCVVYRLIKGRKTVTADDTAIAPLDGEELIVE [W54D]	-0.743 ± 0.33
VKVYLPNKQRTVVTVRDGMSVYDSLDKALKVRGLNQDPCVVYRLIKGRKTVTAWDTAIAPLDGEELIVE [C38P]	-0.677 ± 0.14
VKVYLPNKQRTVVTVRDGMSVYDSLDKALKVRGLNQDGCVVYRLIKGRKTVTAWDTAIAPLDGEELIVE [C38G]	0.038 ± 0.052
VKVYLPNKQRTVVTVRDGMSVYDSLDKALKVRGLNQDCCVVYRLIKGFKTVTAWDTAIAPLDGEELIVE [R48F]	-0.216 ± 0.18
VKVYLPNKQRTVVTVRDGMSVYDSLDKALKVRGLNQDCCVVYRLIKGCKTVTAWDTAIAPLDGEELIVE [R48C]	-0.366 ± 0.15
VKVYLPNKQRTVVTRRDGMSVYDSLDKALKVRGLNQDCCVVYRLIKGRKTVTAWDTAIAPLDGEELIVE [V15R]	-0.822 ± 0.087
VKVYLPNKDRTVVTVRDGMSVYDSLDKALKVRGLNQDCCVVYRLIKGRKTVTAWDTAIAPLDGEELIVE [Q9D]	0.028 ± 0.094
